# Measured values published in patent US20140087995A1 (published 2014).
# Numbered stars: 1 amine (or outer) side, 2 acyl side, 3 side chain; on linkers, the order of the positions; unused ones are H or OH. Bridge positions count the residues as written; N and C are the ends. Side chains are listed from the residue outwards. Ends that are not written are not given here. * marks the point of attachment. C20 diacid = O=C(O)CCCCCCCCCCCCCCCCCCC(=O)*; γGlu = O=C(O)[C@H](CCC(=O)[*:2])N[*:1]
# T1: rat calcitonin receptor (rat, UniProt P32214 25-516)
# T1 construct: whole, on cells; Membranes of transiently transfected BHK tk'ts 13 cells; also called rCTR; rat calcitonin (a) receptor
# T1 sequence (looked up): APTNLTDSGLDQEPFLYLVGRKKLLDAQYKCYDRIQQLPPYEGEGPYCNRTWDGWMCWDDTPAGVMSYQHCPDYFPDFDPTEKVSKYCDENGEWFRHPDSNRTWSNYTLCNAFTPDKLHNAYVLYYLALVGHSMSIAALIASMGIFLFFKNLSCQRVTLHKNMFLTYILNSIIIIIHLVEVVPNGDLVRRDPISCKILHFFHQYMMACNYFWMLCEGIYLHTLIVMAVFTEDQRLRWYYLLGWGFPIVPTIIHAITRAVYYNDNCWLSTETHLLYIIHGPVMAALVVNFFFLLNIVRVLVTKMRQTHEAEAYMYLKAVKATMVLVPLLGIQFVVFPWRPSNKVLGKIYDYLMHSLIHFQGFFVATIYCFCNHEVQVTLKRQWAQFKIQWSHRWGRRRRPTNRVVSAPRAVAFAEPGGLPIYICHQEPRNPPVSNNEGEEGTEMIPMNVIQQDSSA
# T2: rat amylin receptor (rat calcitonin receptor + rat RAMP 3) (rat, UniProt P32214 25-516; Q9JJ73 23-147)
# T2 construct: whole, on cells; Membranes of transiently transfected BHK tk'ts 13 cells; also called rAmylin-R; rat amylin 3(a) receptor
# T2 sequence (looked up) 1: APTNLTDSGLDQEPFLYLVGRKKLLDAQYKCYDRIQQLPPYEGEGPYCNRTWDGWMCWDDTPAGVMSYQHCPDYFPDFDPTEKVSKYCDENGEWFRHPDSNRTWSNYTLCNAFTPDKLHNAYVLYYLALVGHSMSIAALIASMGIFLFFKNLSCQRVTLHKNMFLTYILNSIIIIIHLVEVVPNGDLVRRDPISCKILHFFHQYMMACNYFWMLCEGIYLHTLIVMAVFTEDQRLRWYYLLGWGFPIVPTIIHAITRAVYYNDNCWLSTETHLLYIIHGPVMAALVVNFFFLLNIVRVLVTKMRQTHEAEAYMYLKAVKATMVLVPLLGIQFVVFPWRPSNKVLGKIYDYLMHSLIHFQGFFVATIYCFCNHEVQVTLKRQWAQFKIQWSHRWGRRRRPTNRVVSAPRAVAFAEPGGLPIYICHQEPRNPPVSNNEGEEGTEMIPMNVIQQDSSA
# T2 sequence (looked up) 2: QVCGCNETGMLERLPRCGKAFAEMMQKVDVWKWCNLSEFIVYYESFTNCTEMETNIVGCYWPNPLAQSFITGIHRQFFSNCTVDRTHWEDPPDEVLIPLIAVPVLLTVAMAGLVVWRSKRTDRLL
# T3: human calcitonin receptor (human, UniProt P30988 25-474)
# T3 construct: whole, on cells; Membranes of stably transfected cells; also called hCTR; hCT
# T3 sequence (looked up): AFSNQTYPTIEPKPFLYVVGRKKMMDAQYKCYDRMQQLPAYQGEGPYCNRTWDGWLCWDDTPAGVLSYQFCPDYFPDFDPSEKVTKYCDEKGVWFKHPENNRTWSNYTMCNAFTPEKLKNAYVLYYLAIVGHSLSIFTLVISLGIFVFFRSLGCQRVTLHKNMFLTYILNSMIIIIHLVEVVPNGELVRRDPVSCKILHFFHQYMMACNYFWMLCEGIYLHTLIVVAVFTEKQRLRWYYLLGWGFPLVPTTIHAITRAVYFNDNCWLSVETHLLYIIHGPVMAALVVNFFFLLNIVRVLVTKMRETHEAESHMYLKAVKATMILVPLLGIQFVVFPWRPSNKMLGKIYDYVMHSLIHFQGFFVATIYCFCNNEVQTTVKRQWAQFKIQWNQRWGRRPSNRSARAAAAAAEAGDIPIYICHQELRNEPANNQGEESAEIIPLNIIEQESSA
# Experiments:
# [1] = molecular target: T1, rat calcitonin receptor; experiment: SPA competition with 125I-calcitonin on membranes of BHK tk'ts 13 cells with rat calcitonin receptor (Assay VIII)
# [2] = molecular target: T2, rat amylin receptor (rat calcitonin …); experiment: SPA competition with 125I-rat amylin on membranes of BHK tk'ts 13 cells with rat calcitonin receptor + rat RAMP3 (Assay VI)
# [3] = molecular target: T3, human calcitonin receptor; experiment: ratio of IC50 on human calcitonin receptor to IC50 on human amylin receptor (reference m42), SPA competition
# Method in brief: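 Competition binding by SPA with cell membranes (35 ng/μL) and SPA beads in 50 mM Hepes pH 7.4 with 1 mM CaCl2, 5 mM MgCl2, 0.1% OA and 0.02% Tween20. Incubated 120 min at 25 °C with shaking, then counted.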
# [4] = molecular target: T1, rat calcitonin receptor; experiment: ratio of IC50 on rat calcitonin receptor to IC50 on rat amylin receptor (reference m40)
IC50 [1] [nM],IC50 [2] [nM],Ratio hCT/hAmylin binding [3],Ratio rCT/rAmylin binding [4],Binder
38.3,0.339,53.6,113,"K([γGlu-γGlu-C20 diacid])CNTATCATQRLAEFLRHSSPNFGAIPSSTNVGPRTY-NH2 (disulfide 2-7; N-terminus assumed; SMILES CC[C@H](C)[C@H](NC(=O)[C@H](C)NC(=O)CNC(=O)[C@H](Cc1ccccc1)NC(=O)[C@H](CC(N)=O)NC(=O)[C@@H]1CCCN1C(=O)[C@H](CO)NC(=O)[C@H](CO)NC(=O)[C@H](Cc1c[nH]cn1)NC(=O)[C@H](CCCNC(=N)N)NC(=O)[C@H](CC(C)C)NC(=O)[C@H](Cc1ccccc1)NC(=O)[C@H](CCC(=O)O)NC(=O)[C@H](C)NC(=O)[C@H](CC(C)C)NC(=O)[C@H](CCCNC(=N)N)NC(=O)[C@H](CCC(N)=O)NC(=O)[C@@H](NC(=O)[C@H](C)NC(=O)[C@@H]1CSSC[C@H](NC(=O)[C@@H](N)CCCCNC(=O)CC[C@H](NC(=O)CC[C@H](NC(=O)CCCCCCCCCCCCCCCCCCC(=O)O)C(=O)O)C(=O)O)C(=O)N[C@@H](CC(N)=O)C(=O)N[C@@H]([C@@H](C)O)C(=O)N[C@@H](C)C(=O)N[C@@H]([C@@H](C)O)C(=O)N1)[C@@H](C)O)C(=O)N1CCC[C@H]1C(=O)N[C@@H](CO)C(=O)N[C@@H](CO)C(=O)N[C@H](C(=O)N[C@@H](CC(N)=O)C(=O)N[C@H](C(=O)NCC(=O)N1CCC[C@H]1C(=O)N[C@@H](CCCNC(=N)N)C(=O)N[C@H](C(=O)N[C@@H](Cc1ccc(O)cc1)C(N)=O)[C@@H](C)O)C(C)C)[C@@H](C)O, Synthetic acylated analogue of human amylin; also called compound 110)"
21,0.288,27.3,73,"K([γGlu-γGlu-C20 diacid])CNTATCATQRLAEFLRHSSPNFGAIPSSTNVGPHTY-NH2 (disulfide 2-7 (inferred), Synthetic acylated analogue of human amylin)"
23.4,0.205,18,114,"K([γGlu-γGlu-C20 diacid])CNTATCATQRLAEFLRHSSPNFGAIPSSTNVGPNTF-NH2 (disulfide 2-7; N-terminus assumed; SMILES CC[C@H](C)[C@H](NC(=O)[C@H](C)NC(=O)CNC(=O)[C@H](Cc1ccccc1)NC(=O)[C@H](CC(N)=O)NC(=O)[C@@H]1CCCN1C(=O)[C@H](CO)NC(=O)[C@H](CO)NC(=O)[C@H](Cc1c[nH]cn1)NC(=O)[C@H](CCCNC(=N)N)NC(=O)[C@H](CC(C)C)NC(=O)[C@H](Cc1ccccc1)NC(=O)[C@H](CCC(=O)O)NC(=O)[C@H](C)NC(=O)[C@H](CC(C)C)NC(=O)[C@H](CCCNC(=N)N)NC(=O)[C@H](CCC(N)=O)NC(=O)[C@@H](NC(=O)[C@H](C)NC(=O)[C@@H]1CSSC[C@H](NC(=O)[C@@H](N)CCCCNC(=O)CC[C@H](NC(=O)CC[C@H](NC(=O)CCCCCCCCCCCCCCCCCCC(=O)O)C(=O)O)C(=O)O)C(=O)N[C@@H](CC(N)=O)C(=O)N[C@@H]([C@@H](C)O)C(=O)N[C@@H](C)C(=O)N[C@@H]([C@@H](C)O)C(=O)N1)[C@@H](C)O)C(=O)N1CCC[C@H]1C(=O)N[C@@H](CO)C(=O)N[C@@H](CO)C(=O)N[C@H](C(=O)N[C@@H](CC(N)=O)C(=O)N[C@H](C(=O)NCC(=O)N1CCC[C@H]1C(=O)N[C@@H](CC(N)=O)C(=O)N[C@H](C(=O)N[C@@H](Cc1ccccc1)C(N)=O)[C@@H](C)O)C(C)C)[C@@H](C)O, Synthetic acylated analogue of human amylin)"
1.61,0.152,0.4,10.6,"K([γGlu-γGlu-C20 diacid])CNTATCATQRLAEFLRHSSPNFGAIPSSTNVGPETP-NH2 (disulfide 2-7; N-terminus assumed; SMILES CC[C@H](C)[C@H](NC(=O)[C@H](C)NC(=O)CNC(=O)[C@H](Cc1ccccc1)NC(=O)[C@H](CC(N)=O)NC(=O)[C@@H]1CCCN1C(=O)[C@H](CO)NC(=O)[C@H](CO)NC(=O)[C@H](Cc1c[nH]cn1)NC(=O)[C@H](CCCNC(=N)N)NC(=O)[C@H](CC(C)C)NC(=O)[C@H](Cc1ccccc1)NC(=O)[C@H](CCC(=O)O)NC(=O)[C@H](C)NC(=O)[C@H](CC(C)C)NC(=O)[C@H](CCCNC(=N)N)NC(=O)[C@H](CCC(N)=O)NC(=O)[C@@H](NC(=O)[C@H](C)NC(=O)[C@@H]1CSSC[C@H](NC(=O)[C@@H](N)CCCCNC(=O)CC[C@H](NC(=O)CC[C@H](NC(=O)CCCCCCCCCCCCCCCCCCC(=O)O)C(=O)O)C(=O)O)C(=O)N[C@@H](CC(N)=O)C(=O)N[C@@H]([C@@H](C)O)C(=O)N[C@@H](C)C(=O)N[C@@H]([C@@H](C)O)C(=O)N1)[C@@H](C)O)C(=O)N1CCC[C@H]1C(=O)N[C@@H](CO)C(=O)N[C@@H](CO)C(=O)N[C@H](C(=O)N[C@@H](CC(N)=O)C(=O)N[C@H](C(=O)NCC(=O)N1CCC[C@H]1C(=O)N[C@@H](CCC(=O)O)C(=O)N[C@H](C(=O)N1CCC[C@H]1C(N)=O)[C@@H](C)O)C(C)C)[C@@H](C)O, Synthetic acylated analogue of human amylin)"
86.8,0.659,7.8,132,"K([γGlu-γGlu-C20 diacid])CNTATCATQRLAEFLRHSSNNPGAILSSTNVGPETY-NH2 (disulfide 2-7; N-terminus assumed; SMILES CC[C@H](C)[C@H](NC(=O)[C@H](C)NC(=O)CNC(=O)[C@@H]1CCCN1C(=O)[C@H](CC(N)=O)NC(=O)[C@H](CC(N)=O)NC(=O)[C@H](CO)NC(=O)[C@H](CO)NC(=O)[C@H](Cc1c[nH]cn1)NC(=O)[C@H](CCCNC(=N)N)NC(=O)[C@H](CC(C)C)NC(=O)[C@H](Cc1ccccc1)NC(=O)[C@H](CCC(=O)O)NC(=O)[C@H](C)NC(=O)[C@H](CC(C)C)NC(=O)[C@H](CCCNC(=N)N)NC(=O)[C@H](CCC(N)=O)NC(=O)[C@@H](NC(=O)[C@H](C)NC(=O)[C@@H]1CSSC[C@H](NC(=O)[C@@H](N)CCCCNC(=O)CC[C@H](NC(=O)CC[C@H](NC(=O)CCCCCCCCCCCCCCCCCCC(=O)O)C(=O)O)C(=O)O)C(=O)N[C@@H](CC(N)=O)C(=O)N[C@@H]([C@@H](C)O)C(=O)N[C@@H](C)C(=O)N[C@@H]([C@@H](C)O)C(=O)N1)[C@@H](C)O)C(=O)N[C@@H](CC(C)C)C(=O)N[C@@H](CO)C(=O)N[C@@H](CO)C(=O)N[C@H](C(=O)N[C@@H](CC(N)=O)C(=O)N[C@H](C(=O)NCC(=O)N1CCC[C@H]1C(=O)N[C@@H](CCC(=O)O)C(=O)N[C@H](C(=O)N[C@@H](Cc1ccc(O)cc1)C(N)=O)[C@@H](C)O)C(C)C)[C@@H](C)O, Synthetic acylated analogue of human amylin)"
33.5,0.449,22.6,74.7,"K([γGlu-γGlu-C20 diacid])CNTATCATQRLAEFLRHSSPNFGAILSSTPVGPETY-NH2 (disulfide 2-7, Synthetic acylated analogue of human amylin)"
